Experiments:
[1] = biological target: T1, DdrOC (DdrO) (Deinococcus deserti) (UniProt C1CYP4); assay: EMSA; conditions: EMSA: 10 mM Tris-HCl pH 7.4, 60 mM NaCl, 1 mM DTT, 5% glycerol, 200 ng DNA in 20 ul, 30 min room temperature; 5% PAGE in TAE at 4 C, ethidium bromide
T1 sequence: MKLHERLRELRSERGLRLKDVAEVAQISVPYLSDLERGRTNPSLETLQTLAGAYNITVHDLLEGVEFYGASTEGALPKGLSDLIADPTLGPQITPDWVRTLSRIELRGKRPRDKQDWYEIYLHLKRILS

[2] = biological target: T2, DdrOC cleaved by IrrE (Deinococcus deserti) (UniProt C1CYP4); assay: EMSA; conditions: EMSA: 10 mM Tris-HCl pH 7.4, 60 mM NaCl, 1 mM DTT, 5% glycerol, 200 ng DNA in 20 ul, 30 min room temperature; 5% PAGE in TAE at 4 C, ethidium bromide
T2 sequence: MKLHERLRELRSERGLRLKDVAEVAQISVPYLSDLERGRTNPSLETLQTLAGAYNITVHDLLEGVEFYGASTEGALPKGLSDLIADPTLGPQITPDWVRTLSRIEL

TATAGGTACCGGTACTCCTTCCTGTCCGACAGCAGACAGCGAGGCAAAGCATGAATAGTCGGTCTTAAGGGGGTAAAAGCCTTCTTGATTACGATCATAGCAGATCGTCTCGTGGTGGGCAAGAAGAACTCCTCTCTATTCTGTATTGACCGTACCGGGAAGCGGTGTTACACTCCAACCAAGGGTGCCCGATTCTGCCTACAGGCAAACGCTCCCCCAGGCGGCCCGCCCGGTCAGCGCACAGTCCCGGTCGCTCAAAGCTGCAGTATC (double strand) [ddrOC-ddrQ intergenic region]
binding [1]: binds | binding [2]: no binding
